Measured values as given in patent US20240132626A1.

Target: Soluble human cMet extracellular domain (ECD) protein (human) (UniProt P08581)
Assay: SPR, captured via anti-human kappa, soluble ECD injected

Chain of Soluble human cMet extracellular domain (ECD) protein (human) (P08581 25-932): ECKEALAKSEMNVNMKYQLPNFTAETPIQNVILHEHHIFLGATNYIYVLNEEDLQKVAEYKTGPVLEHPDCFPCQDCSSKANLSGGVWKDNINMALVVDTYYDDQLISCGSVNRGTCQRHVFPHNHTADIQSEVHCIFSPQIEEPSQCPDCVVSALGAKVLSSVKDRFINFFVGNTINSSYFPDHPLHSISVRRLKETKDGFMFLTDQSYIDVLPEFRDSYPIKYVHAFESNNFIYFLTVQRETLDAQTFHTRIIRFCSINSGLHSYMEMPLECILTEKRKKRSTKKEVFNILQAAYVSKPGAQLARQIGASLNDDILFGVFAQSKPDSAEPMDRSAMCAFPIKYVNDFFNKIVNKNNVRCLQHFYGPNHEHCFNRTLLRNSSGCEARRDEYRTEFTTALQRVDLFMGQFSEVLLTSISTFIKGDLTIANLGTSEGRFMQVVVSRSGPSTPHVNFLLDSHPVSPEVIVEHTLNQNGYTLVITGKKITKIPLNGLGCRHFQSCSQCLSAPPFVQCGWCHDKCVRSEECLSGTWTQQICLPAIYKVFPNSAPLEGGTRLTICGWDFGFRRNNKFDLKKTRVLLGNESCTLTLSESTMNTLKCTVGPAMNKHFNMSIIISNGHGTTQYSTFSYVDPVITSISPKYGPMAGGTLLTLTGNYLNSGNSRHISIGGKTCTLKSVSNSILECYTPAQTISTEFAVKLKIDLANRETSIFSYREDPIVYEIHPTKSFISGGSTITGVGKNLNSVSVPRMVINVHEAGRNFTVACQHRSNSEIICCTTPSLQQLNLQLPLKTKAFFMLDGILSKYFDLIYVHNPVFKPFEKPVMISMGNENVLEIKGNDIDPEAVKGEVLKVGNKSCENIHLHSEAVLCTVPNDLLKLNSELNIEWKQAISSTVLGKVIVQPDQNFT

B1: MetMAb (antibody, INN chains, looked up, V domains shown)
VH: EVQLVESGGGLVQPGGSLRLSCAASGYTFTSYWLHWVRQAPGKGLEWVGMIDPSNSDTRFNPNFKDRFTISADTSKNTAYLQMNSLRAEDTAVYYCATYRSYVTPLDYWGQGTLVTVSS
VL: DIQMTQSPSSLSASVGDRVTITCKSSQSLLYTSSQKNYLAWYQQKPGKAPKLLIYWASTRESGVPSRFSGSGSGTDFTLTISSLQPEDFATYYCQQYYAYPWTFGQGTKVEIKR
Binder B1 has a Kd of 1.3 nM, a koff of 0.0001 s⁻¹ and a kon of 75000 M⁻¹ s⁻¹.
